Results on one protein are retold here after article PMC3642240, “Cloning, Expression and Characterization of 3-Hydroxyisobutyrate Dehydrogenase from Pseudomonas denitrificans ATCC 13867” (PLoS ONE, 2013).

Common to all, as to assay: purified protein
Substrate in data set [1]: CC(N)(CO)C(=O)O
Conditions: 2 mM NAD+, 100 mM Tris-HCl pH 9.0, 30 °C.

Substrate in data set [2]: COC(=O)[C@@H](C)CO
Conditions: 2 mM NAD+, 100 mM Tris-HCl pH 9.0, 30 °C.

Substrate in data set [3]: C[C@@H](CO)C(=O)O
Conditions: 2 mM NAD+, 100 mM Tris-HCl pH 9.0, 30 °C.

Substrate in data set [4]: NC(=O)c1ccc[n+]([C@@H]2O[C@H](COP(=O)(O)OP(=O)(O)OC[C@H]3O[C@@H](n4cnc5c(N)ncnc54)[C@H](O)[C@@H]3O)[C@@H](O)[C@H]2O)c1
Conditions: 3 mM 3-hydroxypropionate, NAD+ 0.025-4 mM, 100 mM Tris-HCl pH 9.0, 30 °C, varied: cofactor.

Substrate in data set [5]: O=C(O)CCO
Particulars: 2 mM NAD+, 100 mM Tris-HCl pH 9.0, 30 °C.

B1: 3HIBDH-IV (Pseudomonas sp. ATCC 13867) (protein)
chain: MRIGFIGLGNMGGPMAANLLKAGFDLSVFDLSAKAVAAAVALGARALASPAEVARDDVEVIITMLPAAAHVKQVFLGEDGLLANVQPGVLLIDSSTIDPLNAREVSAAALAHGNPMLDAPVSGGTAGAAAGTLTFMVGGEPADFERARPALAAMGKNIVHCGGTGNGQVAKVANNLLLGISMIGVAEAMSLGVKLGMDADVLAGIINTSSGRCWSSEVNNPLTGAPAARGYSGGFGTDLMLKDLGLASEAARQVRQPVLLGALAQQLFQTFSNQGNGQLDFSAIVKLYEQG
As usually defined, the Km is the substrate concentration at which the rate is half of its maximum. A word on the Vmax: it is the rate approached at saturating substrate. By kcat is commonly meant the maximal rate divided by the concentration of active sites. Usually kcat/Km stands for the turnover number divided by the Michaelis constant. In the case of B1, the Michaelis constant (Km) in “purified protein [1]” came out at 24180 ± 3169 µM; in “purified protein [2]”, 25142 ± 1667 µM; in “purified protein [3]” it was 178 ± 10 µM; in “purified protein [4]”, 164 ± 37 µM; in the data set “purified protein [5]”, 1055 ± 35 µM. Moreover, the maximal velocity (Vmax) is 12.4 µmol/min/mg in “purified protein [1]”; 67 µmol/min/mg in the data set “purified protein [2]”; 151 µmol/min/mg in the data set “purified protein [3]”; 12.6 µmol/min/mg in “purified protein [4]”; 20.2 µmol/min/mg in “purified protein [5]”. Further, the kcat in “purified protein [1]” worked out at 6.62 ± 0.475 s⁻¹; in “purified protein [2]” it was 35.8 ± 3.3 s⁻¹; in the data set “purified protein [3]” it was 80.8 ± 1.1 s⁻¹; in “purified protein [4]”, 6.72 ± 0.126 s⁻¹; in “purified protein [5]”, 10.8 ± 0.945 s⁻¹. For the same protein, the kcat/Km was determined as 275 ± 16 M⁻¹ s⁻¹ in “purified protein [1]”; 1430 ± 231 M⁻¹ s⁻¹ in “purified protein [2]”; 455000 ± 33000 M⁻¹ s⁻¹ in the data set “purified protein [3]”; 42400 ± 10900 M⁻¹ s⁻¹ in “purified protein [4]”; 10200 ± 699 M⁻¹ s⁻¹ in the data set “purified protein [5]”.
